{"source": "patent US20230242634A1", "molecular_target": "human TNF-α (human) (UniProt P01375)", "sequence (P01375 77-233 limits assumed)": "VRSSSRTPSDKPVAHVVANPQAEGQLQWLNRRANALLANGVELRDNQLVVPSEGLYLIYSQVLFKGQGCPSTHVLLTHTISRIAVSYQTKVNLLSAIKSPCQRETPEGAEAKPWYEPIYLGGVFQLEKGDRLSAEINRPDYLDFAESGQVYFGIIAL", "test": "cell-based or functional assay", "data": [{"substance": "TA001 (the original Adalimumab) (antibody)", "values": [{"measurement": "IC50 (M), TNF-α-mediated killing of L929 cells (CCK-8)", "value": "1.48e-08", "unit": "M"}]}]}
